From PMC8008175 (The Journal of Biological Chemistry, 2021)
Numbering of substitutions follows the chain as printed. Values belong to the molecule of their own block, whether it stands above or below them.

Experiments:
[1] = biological target: Ubp6 UBL UBL (Saccharomyces cerevisiae) (UniProt P43593); conditions: cited from earlier work
full-length Rpn1 [2] = biological target: T1, full-length Rpn1 (Saccharomyces cerevisiae, UniProt P38764 1-993); experiment: NMR titration; competition: 150 μM ^15N-UBL with 1× Rpn10-UIM, then 0.3× Rpn1^FL (48 μM), then 2× or 3× Rpn10-UIM; conditions: both partners purified
T1 construct: Rpn1, proteasomal subunit, Saccharomyces cerevisiae, UniProt P38764, full length; Unlabeled in the NMR experiments; also called Rpn1^FL; source: E. coli, purified
T1 sequence (looked up): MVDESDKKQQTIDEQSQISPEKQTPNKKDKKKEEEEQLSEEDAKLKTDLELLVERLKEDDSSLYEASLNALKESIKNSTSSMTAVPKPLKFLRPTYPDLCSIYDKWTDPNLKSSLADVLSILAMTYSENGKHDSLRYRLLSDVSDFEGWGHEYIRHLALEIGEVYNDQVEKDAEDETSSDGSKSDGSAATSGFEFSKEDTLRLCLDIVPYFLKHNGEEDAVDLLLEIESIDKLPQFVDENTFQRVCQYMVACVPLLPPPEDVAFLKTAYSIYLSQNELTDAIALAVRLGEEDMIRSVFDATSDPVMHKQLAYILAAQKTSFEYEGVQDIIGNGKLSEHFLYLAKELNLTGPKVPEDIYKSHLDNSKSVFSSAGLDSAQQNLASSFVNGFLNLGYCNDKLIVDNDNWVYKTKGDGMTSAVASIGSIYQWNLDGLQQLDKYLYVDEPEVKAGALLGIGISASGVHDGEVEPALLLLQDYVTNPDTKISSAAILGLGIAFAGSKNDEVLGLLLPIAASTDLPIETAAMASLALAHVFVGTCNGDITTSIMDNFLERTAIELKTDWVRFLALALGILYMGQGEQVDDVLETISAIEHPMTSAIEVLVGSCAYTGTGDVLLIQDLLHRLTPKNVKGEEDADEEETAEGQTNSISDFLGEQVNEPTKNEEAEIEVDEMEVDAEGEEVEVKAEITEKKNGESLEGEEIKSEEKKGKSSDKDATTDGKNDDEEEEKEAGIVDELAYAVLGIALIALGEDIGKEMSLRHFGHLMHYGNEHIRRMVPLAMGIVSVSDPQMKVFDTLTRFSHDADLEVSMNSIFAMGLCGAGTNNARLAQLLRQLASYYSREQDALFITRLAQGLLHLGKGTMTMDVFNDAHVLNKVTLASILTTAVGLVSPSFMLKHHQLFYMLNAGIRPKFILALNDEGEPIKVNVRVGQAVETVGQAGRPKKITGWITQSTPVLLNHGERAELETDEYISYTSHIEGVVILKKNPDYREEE

Rpn1^391-642 [3] = biological target: T2, Rpn1^391-642 (Saccharomyces cerevisiae, UniProt P38764 391-642); experiment: NMR titration; ^1H-^15N spectra, CSPs and ^15N R2 of 150 μM ^15N-UBL or ^15N-^dK48-Ub2 with unlabeled Rpn1^391-642; 50 mM HEPES, 50 mM KCl, 1 mM TCEP, pH 7.6; 21-25 °C; conditions: both partners purified
T2 construct: Used unlabeled, and ^15N-enriched for the titration with Ubp6-UBL; source: E. coli, purified
T2 sequence (looked up): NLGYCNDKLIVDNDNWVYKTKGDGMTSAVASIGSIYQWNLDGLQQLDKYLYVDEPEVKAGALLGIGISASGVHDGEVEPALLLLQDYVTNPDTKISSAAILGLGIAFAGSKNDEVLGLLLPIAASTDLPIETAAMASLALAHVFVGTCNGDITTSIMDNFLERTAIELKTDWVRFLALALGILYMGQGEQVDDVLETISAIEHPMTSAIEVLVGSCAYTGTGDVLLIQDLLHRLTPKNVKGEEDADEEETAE

Rpn1^356-905 [4] = biological target: T3, Rpn1^356-905 (Saccharomyces cerevisiae, UniProt P38764 356-905); experiment: NMR titration; ^1H-^15N spectra of ^15N-UBL with unlabeled Rpn1^356-905; 50 mM Tris-Cl, 200 mM KCl, 5% glycerol, 5 mM β-mercaptoethanol, pH 7.4; 21-25 °C; conditions: both partners purified
T3 construct: also called PC repeat region construct; source: E. coli, purified
T3 sequence (looked up): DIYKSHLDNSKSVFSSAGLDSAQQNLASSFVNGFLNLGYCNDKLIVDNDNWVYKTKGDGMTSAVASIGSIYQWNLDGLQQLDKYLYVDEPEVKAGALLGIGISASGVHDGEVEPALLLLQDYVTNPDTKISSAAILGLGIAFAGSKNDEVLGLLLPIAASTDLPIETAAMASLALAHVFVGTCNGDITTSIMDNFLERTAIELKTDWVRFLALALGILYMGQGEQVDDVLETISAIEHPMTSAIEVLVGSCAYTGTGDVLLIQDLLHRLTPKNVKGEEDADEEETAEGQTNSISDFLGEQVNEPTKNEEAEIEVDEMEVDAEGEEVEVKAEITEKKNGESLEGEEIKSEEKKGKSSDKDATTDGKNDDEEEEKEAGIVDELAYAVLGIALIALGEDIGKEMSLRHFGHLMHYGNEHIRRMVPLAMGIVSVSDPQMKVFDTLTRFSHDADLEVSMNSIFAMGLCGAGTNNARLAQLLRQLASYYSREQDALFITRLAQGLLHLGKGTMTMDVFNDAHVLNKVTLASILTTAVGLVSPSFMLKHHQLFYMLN

Rpn10-UIM = biological target: T4, Rpn10-UIM (Saccharomyces cerevisiae, UniProt P38886 204-268, Q261Y); experiment: NMR titration; ^1H-^15N spectra of 150 μM ^15N-UBL with 1× Rpn10-UIM; signal shifts; conditions: both partners purified
T4 construct: Rpn10, Saccharomyces cerevisiae, UniProt P38886, residues 204-268 with a Q261Y mutation for quantification purposes; also called UIM domain of Rpn10; source: E. coli, purified
T4 sequence (looked up): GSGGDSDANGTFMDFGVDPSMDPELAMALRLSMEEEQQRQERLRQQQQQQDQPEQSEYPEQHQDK

full-length Rpn1 [5] = biological target: T1, full-length Rpn1; experiment: NMR titration; ^1H-^15N spectra of the ^15N-enriched protein or UBL domain with unlabeled Rpn1^FL (equimolar; excess for Ddi1); signal attenuation; 20 mM sodium phosphate, 150 mM NaCl, 1 mM TCEP, pH 6.8; 21-25 °C; conditions: both partners purified
Rpn1^356-905 [6] = biological target: T3, Rpn1^356-905; experiment: NMR titration; competition: equimolar ^15N-UBL and Rpn1^356-905 with unlabeled competitor added stepwise (molar ratios 1 and 4); 50 mM Tris-Cl, 200 mM KCl, 5% glycerol, 5 mM β-mercaptoethanol, pH 7.4; 21-25 °C; conditions: both partners purified
Rpn1^391-642(AKAA) = biological target: T5, Rpn1^391-642(AKAA) (Saccharomyces cerevisiae, UniProt P38764 391-642, L430A | D431K | Q434A | Q435A); experiment: NMR titration; unlabeled Ubp6-UBL titrated into ^15N-Rpn1^391-642 or ^15N-Rpn1^391-642(AKAA); CSPs fitted to a single-site binding model, Kd as a global parameter; 50 mM HEPES, 50 mM KCl, 1 mM TCEP, pH 7.6; 21-25 °C; conditions: both partners purified
T5 construct: ^15N-enriched in the titration; source: E. coli, purified
T5 sequence (looked up): T2 sequence (looked up) with L40A, D41K, Q44A, Q45A

Rpn1^391-642 [7] = biological target: T2, Rpn1^391-642; experiment: as above; conditions: both partners purified

Molecule: Rpn1 391-642 (from UniProt P38764)
- Kd [1]: 40 µM

B1: Rad23-UBL (residues 1-73) (domain or fragment, Saccharomyces cerevisiae, UniProt P32628 1-73, looked up)
chain: MVSLTFKNFKKEKVPLDLEPSNTILETKTKLAQSISCEESQIKLIYSGKVLQDSKTVSECGLKDGDQVVFMVS
notes: ^15N-enriched; source: E. coli, purified
- binding result (full-length Rpn1 [2]): binds

B4: Rad23-UBL (residues 2-77) (domain or fragment, Saccharomyces cerevisiae, UniProt P32628 2-77, looked up)
chain: VSLTFKNFKKEKVPLDLEPSNTILETKTKLAQSISCEESQIKLIYSGKVLQDSKTVSECGLKDGDQVVFMVSQKKS
notes: Rad23, Saccharomyces cerevisiae, UniProt P32628, UBL domain, residues 2-77; also called UBL domain of Rad23; source: E. coli, purified
- binding result (Rpn1^391-642 [3]): binds
- binding result (Rpn1^356-905 [6]): binds
- binding result (full-length Rpn1 [5]): binds

B5: full-length Ubp6 (enzyme, Saccharomyces cerevisiae, UniProt P43593 1-499, looked up)
chain: MSGETFEFNIRHSGKVYPITLSTDATSADLKSKAEELTQVPSARQKYMVKGGLSGEESIKIYPLIKPGSTVMLLGTPDANLISKPAKKNNFIEDLAPEQQVQQFAQLPVGFKNMGNTCYLNATLQALYRVNDLRDMILNYNPSQGVSNSGAQDEEIHKQIVIEMKRCFENLQNKSFKSVLPIVLLNTLRKCYPQFAERDSQGGFYKQQDAEELFTQLFHSMSIVFGDKFSEDFRIQFKTTIKDTANDNDITVKENESDSKLQCHISGTTNFMRNGLLEGLNEKIEKRSDLTGANSIYSVEKKISRLPKFLTVQYVRFFWKRSTNKKSKILRKVVFPFQLDVADMLTPEYAAEKVKVRDELRKVEKEKNEKEREIKRRKFDPSSSENVMTPREQYETQVALNESEKDQWLEEYKKHFPPNLEKGENPSCVYNLIGVITHQGANSESGHYQAFIRDELDENKWYKFNDDKVSVVEKEKIESLAGGGESDSALILMYKGFGL
notes: Ubp6, deubiquitinase with a UBL domain, Saccharomyces cerevisiae, UniProt P43593, full length; source: E. coli, purified
- binding result (full-length Rpn1 [5]): binds

B7: Ubp6-UBL (domain or fragment, Saccharomyces cerevisiae, UniProt P43593 2-81, looked up)
chain: SGETFEFNIRHSGKVYPITLSTDATSADLKSKAEELTQVPSARQKYMVKGGLSGEESIKIYPLIKPGSTVMLLGTPDANL
notes: Ubp6, Saccharomyces cerevisiae, UniProt P43593, UBL domain, residues 2-81; Used ^15N-enriched or unlabeled; also called UBL domain of Ubp6; source: E. coli, purified
- Kd (Rpn1^391-642(AKAA)): 36 ± 21 µM
- Kd (Rpn1^391-642 [7]): 43 ± 22 µM

More lines, now with the values ahead:

- binding result (Rpn1^391-642 [3]): binds
- binding result (full-length Rpn1 [2]): binds
- binding result (Rpn1^356-905 [4]): binds
- binding result (Rpn10-UIM): binds
B2: Dsk2-UBL (domain or fragment, Saccharomyces cerevisiae)
chain: SLNIHIKSGQDKWEVNVAPESTVLQFKEAINKANGIPVANQRLIYSGKILKDDQTVESYHIQDGHSVHLVKSQPKPLDLQPSLIS
notes: Dsk2, Saccharomyces cerevisiae, UniProt P48510, UBL domain, residues 2-77; also called UBL domain of Dsk2; source: E. coli, purified

- binding result (full-length Rpn1 [5]): binds
B3: full-length Dsk2 (natural protein, Saccharomyces cerevisiae, UniProt P48510 1-373, looked up)
chain: MSLNIHIKSGQDKWEVNVAPESTVLQFKEAINKANGIPVANQRLIYSGKILKDDQTVESYHIQDGHSVHLVKSQPKPQTASAAGANNATATGAAAGTGATPNMSSGQSAGFNPLADLTSARYAGYLNMPSADMFGPDGGALNNDSNNQDELLRMMENPIFQSQMNEMLSNPQMLDFMIQSNPQLQAMGPQARQMLQSPMFRQMLTNPDMIRQSMQFARMMDPNAGMGSAGGAASAFPAPGGDAPEEGSNTNTTSSSNTGNNAGTNAGTNAGANTAANPFASLLNPALNPFANAGNAASTGMPAFDPALLASMFQPPVQASQAEDTRPPEERYEHQLRQLNDMGFFDFDRNVAALRRSGGSVQGALDSLLNGDV
notes: Dsk2, UBL-UBA shuttle protein, Saccharomyces cerevisiae, UniProt P48510, full length; ^15N-enriched; source: E. coli, purified

- binding result (full-length Rpn1 [5]): binds
B6: full-length Rad23 (natural protein, Saccharomyces cerevisiae, UniProt P32628 1-398, looked up)
chain: MVSLTFKNFKKEKVPLDLEPSNTILETKTKLAQSISCEESQIKLIYSGKVLQDSKTVSECGLKDGDQVVFMVSQKKSTKTKVTEPPIAPESATTPGRENSTEASPSTDASAAPAATAPEGSQPQEEQTATTERTESASTPGFVVGTERNETIERIMEMGYQREEVERALRAAFNNPDRAVEYLLMGIPENLRQPEPQQQTAAAAEQPSTAATTAEQPAEDDLFAQAAQGGNASSGALGTTGGATDAAQGGPPGSIGLTVEDLLSLRQVVSGNPEALAPLLENISARYPQLREHIMANPEVFVSMLLEAVGDNMQDVMEGADDMVEGEDIEVTGEAAAAGLGQGEGEGSFQVDYTPEDDQAISRLCELGFERDLVIQVYFACDKNEEAAANILFSDHAD
notes: Rad23, UBL-UBA shuttle protein, Saccharomyces cerevisiae, UniProt P32628, full length; ^15N-enriched; source: E. coli, purified
